From article PMC10281804, “The structural basis of the talin–KANK1 interaction that coordinates the actin and microtubule cytoskeletons at focal adhesions” (Open Biology, 2023)

How the values were obtained:
[1] = test system: focal adhesions of NIH3T3 fibroblasts; assay: KANK1 localization to focal adhesions (co-expression with GFP–paxillin); type: cell-based, mouse; conditions: NIH3T3 fibroblasts co-expressing GFP–paxillin
Description: (§1) NIH3T3 mouse fibroblasts and HEK293T human epithelial cells were obtained from the American Type Culture Collection (ATCC). The vinculin null and WT mouse embryonic fibroblasts (MEFs) originate from the Eileen Adamson laboratory. All cells were maintained in Dulbecco's Modified Eagle Medium (DMEM; Sigma) supplemented with 10% fetal bovine serum (FBS, Gibco), 1% L-glutamine (Sigma) and 1% non-essential amino acids (Sigma). Talin1&2 null cells were cultured in DMEM F-12 (Gibco) supplemented with 10% FBS, 1% L-glutamine, 1% non-essential amino acids and […] HEPES (Sigma). All cells were cultured at 37̊C supplied with 5% CO2 and 95% humidity. Transient transfections were performed using Lipofectamine LTX with Plus Reagent (Invitrogen) to NIH3T3 cells, Lipofectamine 2000 (Invitrogen) to talin null cells, and jetPRIME reagent (Polyplus) to MEFs and HEK293T cells, as per the manufacturer's instructions.
(§2) For the construction of mCherry-KANK1, human FL-KANK1 (generous donation from the Bershadsky laboratory) cDNA was tagged in the C-terminal site with pmCherry (Clontech) by restriction digestion. Point mutations (L41E, L43E, F45E and V49E) were introduced in mCherry-KANK1 by site-directed mutagenesis (NEB) using the following oligonucleotides: […]ga[…] and […] for L41E; […]ga[…] and […] for L43E; […]gaa[…] and […] for F45E; […]a[…] and […] for V49E. Generation of GFP–talin1–cBAK and GFP–cBAK was as previously described. G1404L was introduced on GFP–talin1–cBAK by the method above using […]ctt[…] and […]. To generate GFP–talin1 R7DD–cBAK and GFP–talin1 R9DD-cBAK constructs, R7-DD (3555 bp) and R9-DD (2661 bp) were amplified from talin-1 (Mus musculus). Restriction digestion with XhoI and HindIII FastDigest enzymes (Thermo Scientific) was used to linearize GFP–cBAK. DNA assembly was performed to join R7-DD and R9-DD to linearized the GFP–cBAK vector using the NEBuilder HiFi DNA assembly kit (NEB).
(§3) Images of fixed samples in PBS were acquired at room temperature using an Olympus IX83 inverted microscope equipped with a 60×/1.42 PlanApo N oil objective and a QImaging Retiga R6 CCD camera, controlled by Metamorph software. Samples were illuminated using LEDs (UV/Cyan/Green-Yellow/Red, Lumencor) for fluorescence excitation; a Sedat filter set (DAPI/FITC/TRITC/Cy5, Chroma, 89000) was used.

[2] = test system: GFP–talin1–cBAK; assay: Mitochondrial targeting system (MTS): recruitment of mCherry–KANK1 by GFP–talin1–cBAK; type: cell-based; conditions: NIH3T3 fibroblasts and HEK293T cells; fluorescence microscopy colocalization
Text: To examine the effect of these KANK1 mutations on talin interactions in cells, we next used a mitochondrial targeting system (MTS) which we previously used to screen for defined protein–protein interactions. In this assay, one protein is fused to a small peptide sequence from the pro-apoptotic protein BAK (cBAK) which leads to its insertion into the outer membrane of mitochondria. Proteins that interact with the cBAK-tagged protein will get recruited to mitochondria, and this recruitment can be verified either by visualizing colocalization using fluorescence microscopy (figure 4a) or by purification of mitochondria followed by detection of co-precipitates using biochemistry (figure 4b,c). […] To confirm that the interaction was meditated by the R7 domain, we performed the colocalization assays with truncated talin constructs.
as §1, §2, §3

Molecule | localization of mCherry–KANK1 to FAs / FA belt [1] | recruitment of mCherry–KANK1 to mitochondria by GFP–talin1–cBAK [2]
KANK1 WT: human FL-KANK1 tagged with pmCherry (protein, UniProt Q14678 1-1352, looked up, full-length mCherry fusion, human FL-KANK1 tagged with pmCherry) MAHTTKVNGSASGKAGDILSGDQDKEQKDPYFVETPYGYQLDLDFLKYVDDIQKGNTIKRLNIQKRRKPSVPCPEPRTTSGQQGIWTSTESLSSSNSDDNKQCPNFLIARSQVTSTPISKPPPPLETSLPFLTIPENRQLPPPSPQLPKHNLHVTKTLMETRRRLEQERATMQMTPGEFRRPRLASFGGMGTTSSLPSFVGSGNHNPAKHQLQNGYQGNGDYGSYAPAAPTTSSMGSSIRHSPLSSGISTPVTNVSPMHLQHIREQMAIALKRLKELEEQVRTIPVLQVKISVLQEEKRQLVSQLKNQRAASQINVCGVRKRSYSAGNASQLEQLSRARRSGGELYIDYEEEEMETVEQSTQRIKEFRQLTADMQALEQKIQDSSCEASSELRENGECRSVAVGAEENMNDIVVYHRGSRSCKDAAVGTLVEMRNCGVSVTEAMLGVMTEADKEIELQQQTIESLKEKIYRLEVQLRETTHDREMTKLKQELQAAGSRKKVDKATMAQPLVFSKVVEAVVQTRDQMVGSHMDLVDTCVGTSVETNSVGISCQPECKNKVVGPELPMNWWIVKERVEMHDRCAGRSVEMCDKSVSVEVSVCETGSNTEESVNDLTLLKTNLNLKEVRSIGCGDCSVDVTVCSPKECASRGVNTEAVSQVEAAVMAVPRTADQDTSTDLEQVHQFTNTETATLIESCTNTCLSTLDKQTSTQTVETRTVAVGEGRVKDINSSTKTRSIGVGTLLSGHSGFDRPSAVKTKESGVGQININDNYLVGLKMRTIACGPPQLTVGLTASRRSVGVGDDPVGESLENPQPQAPLGMMTGLDHYIERIQKLLAEQQTLLAENYSELAEAFGEPHSQMGSLNSQLISTLSSINSVMKSASTEELRNPDFQKTSLGKITGNYLGYTCKCGGLQSGSPLSSQTSQPEQEVGTSEGKPISSLDAFPTQEGTLSPVNLTDDQIAAGLYACTNNESTLKSIMKKKDGNKDSNGAKKNLQFVGINGGYETTSSDDSSSDESSSSESDDECDVIEYPLEEEEEEEDEDTRGMAEGHHAVNIEGLKSARVEDEMQVQECEPEKVEIRERYELSEKMLSACNLLKNTINDPKALTSKDMRFCLNTLQHEWFRVSSQKSAIPAMVGDYIAAFEAISPDVLRYVINLADGNGNTALHYSVSHSNFEIVKLLLDADVCNVDHQNKAGYTPIMLAALAAVEAEKDMRIVEELFGCGDVNAKASQAGQTALMLAVSHGRIDMVKGLLACGADVNIQDDEGSTALMCASEHGHVEIVKLLLAQPGCNGHLEDNDGSTALSIALEAGHKDIAVLLYAHVNFAKAQSPGTPRLGRKTSPGPTHRGSFD | readily localized to FAs, and predominantly to the typical ‘belt-like’ structure | readily recruits
KANK1 V49E: mCherry-KANK1 with point mutation V49E (protein, left off: mCherry, C-terminal, kept) MAHTTKVNGSASGKAGDILSGDQDKEQKDPYFVETPYGYQLDLDFLKYEDDIQKGNTIKRLNIQKRRKPSVPCPEPRTTSGQQGIWTSTESLSSSNSDDNKQCPNFLIARSQVTSTPISKPPPPLETSLPFLTIPENRQLPPPSPQLPKHNLHVTKTLMETRRRLEQERATMQMTPGEFRRPRLASFGGMGTTSSLPSFVGSGNHNPAKHQLQNGYQGNGDYGSYAPAAPTTSSMGSSIRHSPLSSGISTPVTNVSPMHLQHIREQMAIALKRLKELEEQVRTIPVLQVKISVLQEEKRQLVSQLKNQRAASQINVCGVRKRSYSAGNASQLEQLSRARRSGGELYIDYEEEEMETVEQSTQRIKEFRQLTADMQALEQKIQDSSCEASSELRENGECRSVAVGAEENMNDIVVYHRGSRSCKDAAVGTLVEMRNCGVSVTEAMLGVMTEADKEIELQQQTIESLKEKIYRLEVQLRETTHDREMTKLKQELQAAGSRKKVDKATMAQPLVFSKVVEAVVQTRDQMVGSHMDLVDTCVGTSVETNSVGISCQPECKNKVVGPELPMNWWIVKERVEMHDRCAGRSVEMCDKSVSVEVSVCETGSNTEESVNDLTLLKTNLNLKEVRSIGCGDCSVDVTVCSPKECASRGVNTEAVSQVEAAVMAVPRTADQDTSTDLEQVHQFTNTETATLIESCTNTCLSTLDKQTSTQTVETRTVAVGEGRVKDINSSTKTRSIGVGTLLSGHSGFDRPSAVKTKESGVGQININDNYLVGLKMRTIACGPPQLTVGLTASRRSVGVGDDPVGESLENPQPQAPLGMMTGLDHYIERIQKLLAEQQTLLAENYSELAEAFGEPHSQMGSLNSQLISTLSSINSVMKSASTEELRNPDFQKTSLGKITGNYLGYTCKCGGLQSGSPLSSQTSQPEQEVGTSEGKPISSLDAFPTQEGTLSPVNLTDDQIAAGLYACTNNESTLKSIMKKKDGNKDSNGAKKNLQFVGINGGYETTSSDDSSSDESSSSESDDECDVIEYPLEEEEEEEDEDTRGMAEGHHAVNIEGLKSARVEDEMQVQECEPEKVEIRERYELSEKMLSACNLLKNTINDPKALTSKDMRFCLNTLQHEWFRVSSQKSAIPAMVGDYIAAFEAISPDVLRYVINLADGNGNTALHYSVSHSNFEIVKLLLDADVCNVDHQNKAGYTPIMLAALAAVEAEKDMRIVEELFGCGDVNAKASQAGQTALMLAVSHGRIDMVKGLLACGADVNIQDDEGSTALMCASEHGHVEIVKLLLAQPGCNGHLEDNDGSTALSIALEAGHKDIAVLLYAHVNFAKAQSPGTPRLGRKTSPGPTHRGSFD | abolished localization to FAs and the FA belt | abolishes GFP–talin–cBAK mediated recruitment
